Results: a protein production outcome set (Wang et al. 2014)

Test: label from the status in PepcDB records

| Sequence | protein production |
| --- | --- |
| MATGGLAIIQSMKHKLPPSERKLADYILAHPHKAIESTVNEISALANSSDAAVIRLCKSLGLKGFQDLKMRVAGDLAKPTFQGYRDIVPHEPLPSISEKTAGNAIQAIQDTSDLMDYKELERAVSLLLKAHTVHFIGLGASGIVAKDAQQKWLRIHKQATAFTDTHLVASLIANADKDDIVFAISFSGETQEIVELFAMAKEKGITTISLTQFSQTSVSALADVPLYTAHSNEALIRSAATSSRLAQLFIIDVLFLGMAAEQYETTTGYIDKTRAAIQSMRIK | not failed |
| MAGAMIEARGLVKRFVSGRIRRRVVEALKGVSFSVYEGEIYSFLGPNGAGKTTTVRILSTLLDPDGGEARVAGFDVVKERWEVRKRIGVMLSVERGFYWKLTGRENLYYFGRIYGIPQGELKSRIKEVLDLVGLTDLGGADKPFEEMSLGMKARLGLARVLLKDPEVLILDEPTLGLDPASARTIRGVIRSLASEGRTIFITTHNMVEAEMISDRVGIIIGGRIAMEGTPDELKRRVFSSINLEFRVKASGHAAKKFFYDVKGEYGNRIVGGVTFSDGILTFRVSVNRDEPAEPIIDRITRLAYQYRFKILEIKALEPSLEDVFVAVSESGEARSGRVKGSIAQRLEHHHHHH | not failed |
| MSANMHIFENPSALAEALADDVGARLAAAIAARGTASLAVSGGSTPKAFFRSLSRRELDWSKVTVTLVDERFVPPENDRSNHRLVADNLLKDGAAEARFVPLYQAAETAEAAAAIASGRTASLGAPLDVVVLGMGTDGHTASFFPGGTRLEEALDPTTPRGVITMEAEGAGEPRLTFTFSSLQDAGYLVLHIEGSGKKEVLAQAEASGDEAEMPIRAMLRRAASPLQIYWAP | failed |
| MASEVVRDSLWRYFAEFVGTFILMLFGDGAVVASLVTNGTSPGYGFIMISWGFGVVLAIYAVGPISGAHINPNVTLAFAVTKRMKWRDVIPYILFQTLGAAAAAGILLAWWGSIITKMDPPPTLYAQVGASFFTEYPNPSFWGQYWPKELLLPNSASGTSLFSEVNQVFPLWIGAFAELLMTFLLLLIVLAVTDTDSPFFNQSLAPWAIGIGYVMPFLLFEAQLTGGMINEARSWGPMLALYLFGYRTGAFNFRGQYFFVYGIPDFIGGILGALFWDYVLKPYLKYLKSNNKK | failed |
| MNLTRLREKILNKSHSAMLIFSDINISYLSTFTGHAATILLTSKGNYLLTDYRYFEQAKTQASHFNVICRDRANQSLASLIEDLLFQDDCQSLSFESEHISVMQWQQIHQQISQLTKLSQIEAVSGAVEALRFIKSTSEISSIEQAAKIADTALAAMLNSVKAGVTERELAIELDYQMAKLGSEEVSFATILLFGERSALPHGIPSDKQLKLGDIILIDFGAVVNGYRSDMTRTFVFGQASAEQKHIYQLVQSAQQAAIDAVYEGVLGSHLYQQSANILLNSEYKKYAGEGLGHGVGLVLHEQPFIGPDCHTTIEKGCVITIEPGIYIPGWGGIRIEDDVVLTDEGLKILTKSPKGLIEL | failed |
| MSDHEAGHKFLARLGKKRLRPGGRKATEWLLSQAAFRQDSVVLEVACNMGTTAMEIARRFGCKVIGADMDKAALQKAQENVAANGLASQVTIMQANALELPFPDNHFDVVINEAMLTMYADKAKSRIIAEYYRVLKPGGRLITHDIMLLSEKDTGALQAVEQMHKAINVHAQPMLRERWVTLFQECGFSKVNYDNGAMTLLTPQGLIYDEGVAGAARIVKNALKKENRSMFFNMFHTFRRNRNQLNYIAVCSTK | failed |
| RERLRFERDHFRILVDVTNTVISKLELDVLAAEVSKEIHRFFNIDYISLAICGTHNDKNKLNVFSTRYQSGQAVQHQQTWVDMTGTLAGQVLHSRELLLVNLADIALLAPDDKQLASMLDAGLQAVCLLPLFFGHKMLGVLKLAQCQSDIFTGSNLKLLRQIAARIAIAVDNALAYNEITRLKDS | failed |
| MIVEKVLIVDPIDGEFTGDVEIEEGKIVKVEKRECIPRGVLMPGFVDPHIHGVVGADTMNCDFSEMEEFLYSQGVTTFLATTVSTSLEKMKEILRKARDYILENPSTSLLGVHLEGPYISKEKKGAHSEKHIRPPSERELSEIDSPAKMLTFAPEIESSELLLRLVKRDIVLSAGHSIATFEEFMKFYKEGVKRITHFPNGLKPLHHREIGITGAGLLLDDVKLELICDGVHLSREMVKLVYKVKKANGIVLVTDSISAAGLKDGTTTLGDLVVKVKDGVPRLEDGTLAGSTLFFSQAVKNFRKFTGCSITELAKVSSYNSCVELGLDDRGRIAEGTRADLVLLDEDLNVVMTIKEGEVVFRSR | not failed |
| MDYLSQEEDLQFFDANEEMMALNPSGFGFDVWNDSPGSVVERRRKFLEWMGVEEEGRVETKDSVSGSSVESCFDGGEENSVEAEERSGECSSSSSEVSLSGSSVEVSEELSLRVDRNVGGCDVTRRQSSSMASCSSSRYCQVKETEKQRNIAGLVTSFKKGWLSRLRSMGCTADTNIESGGRMRASSGYGDVISRVKVKHCKKQAKELSALYQSQDIKAHDGAILAMKFSNDGKFLASSGEDGIVRVWKVVEDKKSRLRRDCLNEIDPSCMYFEVNDLSQLKPVLVNEEKPKKTTESFRKTSDSACVVFPPKVFRIMEKPLYEFRGHTGEVLDISWSKDNYLLSASMDKTVRLWKVGSNDCLGVFAHNSYVTSVQFNPVNENYFMSGSIDGKVRIWNISGCSVVDWADLKDIISAVCYRPDGQGGIIGSLNGSCRFFNMSGEFLELDSQIHLHNKKKSSNKRITGFQFLPQEPTKVLVVSADSKVRILQGNNVVRKYKGVCKTRSLTSASLTSDGKHIVSACEDSNVYIWSNDEESETKKIRSFERFSANASVAATWCGFSDHNTTLPFSSPSCLSHNEGFVPGSISKGSATWPEENLPANPLSTSAMNASHYKFLKSSYQRASSSLSWGMVIVTGGWDGQIRTFQNYGLPVTT | failed |
| MSSNPTSSVREFEYKAEMKQLLNLIVHSLYTHPEIFLRELISNASDALGKARFRMLSSDEGLDKSGDLKITITVDKESGSFVIEDTGIGMSEEELISNLGTVASSGTLGFMEALKEQQKEGQRLDANLIGQFGVGFYSVFMVTDEVTVETKSIESGLQGWRWKSSGQGSYTIEPVEREARGTRISFILKEEFREFAQEYRVEQIIKKYSNFVEYPIYIGSRQINSMTALWQRPKSELKQEEVNEFYKFIANDFKDPLDYLHVSVEGAVSFKALLFIPSEAPMELLYNQGALEKRGPQLYVKKVLIQHECRDLLPEYLRFVSGVVDTEDLPLNVSRELVQASPVMAKIKQILTTKLLGWFDTIAKEEPEKFRAFYKAFGTILKIGLNTDFTNRDKLIDLLRFETTKTVEGEYVTLKEYVGRMAEGQTEIYYHSGSSRAQMLAHPNLEYFRKRDIEVLLLSDPVDVFVIPSIFEYDKKPLKSIEKAEIDMSTVEPEGERLSAEGTVGVISLFKEVLGERVADVVESRRLVSSPVTLVSGKDALDSQFEKMMKMMNKDADMPSTKKILEINTAHPIIRNLAGKHAVGLSTDPVVRAAVTQLFESALLLEGDLESVADYVSRMNELVEAATRS | failed |
| MANTYGGVIFLGIEEKPKGRFSVTGIAVPERVLKALWDGLNNRQRISINLLTDKMVEVIEIQGKQVIRIQVPRARRAQRPVYVGQNPLTGTYRRNYEGDYLCDEETIKRMLAEQVEEVRDARLLENYGFDDIEPNTLKAYRNQYDLTKALSALVRDGFLESGGIARGTFYFFPGEPPNAEADLVAQNYKFVEKSSPEDLLLGIIPKEIFDDLKPSSDDLKPSSDDLEPSSDDLEPSSDDWQSLMAIAVTIRNKGKVSTDIMEATILRLCQGRFLNHKQLQELLDRSYNTLRLGYLSKMHKKGQLELRYPDKLTHPNQGYRTKNSSSSDF | failed |
| IPELKDHLRIFRPRKLTLKGYRQHWVVFKETTLSYYKSQDEAPGDPIQQLNLKGCEVVPDVNVSGQKFCIKLLVPSPEGMSEIYLRCQDEQQYARWMAGCRLASKGRTMADSSYTSEVQAILAFLSLQRT | not failed |
| MDFSQLGGLLDGMKKEFSQLEEKNKDTIHTSKSGGGMVSVSFNGLGELVDLQIDDSLLEDKEAMQIYLMSALNDGYKAVEENRKNLAFNMLGNFAKL | not failed |
| MSGPTWLPPKQPEPSRVPQGRALPRGTLGPPTAHGATLQPHPRVNFCPLPPEQCYQPPGVPEDRGPTWVGSHGAAQRLQGLPPDRGVIHPGSLDAEIDSLTSMLADLDGSRSHAPRRPDRQAFEAPPPHAYRGGSLKPSGGAVPAPMLPASPYGGPTPASYATASTPAGPAFPVQVKVAQPVRGCGLPRRGASQASGPLPGPHFPLTGRGEVWGAGYRSHREPGPGVKEGAAGVHNPAGGGRRGGHEPQGPLSQPPEEELERLTKKLVHDMNHPPSGEYFGRCGGCGDDVVGDGAGVVALDRVFHTGCFVCSTCRAQLRGQHFYAVERRAYCESCYVATLEKCSTCSEPILDRILRAMGKAYHPGCFTCVVCHRGLDGIPFTVDATSQIHCIEDFHRKFAPRCSVCGGAIMPEPGQEETVRIVALDRSFHIGCYKCEECGLLLSSEGECQGCYPLDGHILCKACSAWRIQELSATVTTDC | failed |
| MSYSEIAACLAYAVSVWLAARNNVHTWWIGIIGSILYGWVFWSVQLYADVTLQLFFIATSITGWIHWLKGQGGDILPVRRTQASHFFLLLLCAVVVAGGYGFLLHTFTNAWAPWLDSLILTFSVLAQFMLMGRRIENWFVWLAVNTLAVPLYMTRGLNLTAGLYFLFWINAWHGLYQWRKELQTS | failed |
| MDLDVYVSAHRAEWDRLDDLLRRRRRLTGAEADELVALYQRTATHLSVIQSSAPDPQLTGRLSQLVARARSAVTGTRRASWRDVTRFLAYGFPAAVYRARHWWVPTALLSTVTAVLLGWWIGTHPEVQSSIAAPSELRALTRPGGEYETYYSSHPAASFAAQVWTNNAQAAAMCLVLGIFLGLPVLWILFQNMLNLGVGLGLMSSAGRLDTFLGLVLPHGLLELTAVFVAAGTGLRLGWTLIDPGPRSRRTALAEEGRAALGMAVGLALVLFVSGAIEGFVTPSGLPTWARIGIGIAAELAFLTYVYVLGGRATRAGDTGDIEAAERSATVPTAA | failed |
| MTAAPGTSMATPHVAGIAALLLQAHPSWTPDKVKTALIETADIVKPDEIADIAYGAGRVNAYKAINYDNYAKLVFTGYVANKGSQTHQFVISGASFVTATLYWDNANSDLDLYLYDPNGNQVDYSYTAYYGFEKVGYYNPTDGTWTIKVVSYSGSANYQVDVVSDGSLSQLEHHHHHH | not failed |
| MFADRLFNAMERNEPAPGMVLVAAPSMESEDFARSVILIIEHSEYATFGVNLASRSDVAVFNVIPEWVPCVTKPQALYIGGPLNQQSVVGVGVTAQGVDAARVDNLTRLANRLVMVNLGADPEEIKPLVSGMRLFAGHAEWAPGQLAQEIENGDWFVAPALPSDVTAPGSVDVWGDVMRRQPMPLPLYSTFPVNVGEN | not failed |
| MGAVTDDEVIRKRLLIDGDGAGDDRRINLLVKSFIKWCNSGSQEEGYSQYQRMLSTLSQCEFSMGKTLLVYDMNLREMENYEKIYKEIECSIAGAHEKIAECKKQILQAKRIRKNRQEYDALAKVIQHHPDRHETLKELEALGKELEHLSHIKESVEDKLELRRKQFHVLLSTIHELQQTLENDEKLSEVEEAQEASMETDPKP | failed |
| MDRSLQSTHAKLVARDIQRLTQSPTESNSFSLLGGACVSRVEIVGTIVSRDLTPKFLKFGVDDGTGCVTCVMWLNQLTSSYFSRWDPATILLLASAARKQAAQIRIGAVARVRGRVGSYRGVMQITANVAVAERDPNAEILHWLECLKLGQSCYRVRIQS | failed |
